As usually defined, the stoichiometry N is a count of units in the complex or per binding partner.

Data set [1] addresses rhIE1(36-395), core domain of rhesus cytomegalovirus IE1, lysine-methylated (rhesus cytomegalovirus (rhesus macaque CMV)). Kind of data set: crystal structure; rhIE1(36-395), lysine-methylated; hanging drop, 0.4 M magnesium formate, 15% (w/v) PEG 3350; monoclinic P2_1 crystals and, after controlled dehydration, tetragonal P4_3 crystals (2.3 Å).
Data set [2] concerns the molecule itself. As to the kind of experiment: SEC; Superdex 200 prepgrade; 25 mM Tris, 150 mM NaCl, 10 mM DTT, pH 7.5; calibrated with the Bio-Rad gel filtration standard. In general terms: In gel filtration, larger molecules generally elute earlier.

Molecule “rhIE1(36-395), core domain of rhesus cytomegalovirus IE1, lysine-methylated (domain or fragment)” returned a stoichiometry N in data set [1] of 2.

B1: hIE1_(CORE)(14-382), recombinant (domain or fragment)
chain: PDEGPSSKVPRPETPVTKATTFLQTMLRKEVNSQLSLGDPLFPELAEESLKTFEQVTEDCNENPEKDVLAELVKQIKVRVDMVRHRIKEHMLKKYTQTEEKFTGAFNMMGGCLQNALDILDKVHEPFEEMKCIGLTMQSMYENYIVPEDKREMWMACIKELHDVSKGAANKLGGALQAKARAKKDELRRKMMYMCYRNIEFFTKNSAFPKTTNGCSQAMAALQNLPQCSPDEIMAYAQKIFKILDEERDKVLTHIDHIFMDILTTCVETMCNEYKVTSDACMMTMYGGISLLSEFCRVLCCYVLEETSVMLAKRPLITKPEVISVMKRRIEEICMKVFAQYILGADPLRVCSPSVDDLRAIAEESDEEE
notes: also called hIE1(14-382); source: E. coli BL21(DE3), purified (glutathione sepharose, PreScission cleavage, SEC)
Turning to B1, the binding result in data set [2] is “binds”.

For the origin of these results see paper PMC4239116, “Crystal Structure of Cytomegalovirus IE1 Protein Reveals Targeting of TRIM Family Member PML via Coiled-Coil Interactions” (PLoS Pathogens, 2014).
